Source: US20240165282A1, “CONFORMATIONAL CONSTRAINED SOMATOSTATIN RECEPTOR 3 PEPTIDE LIGANDS AND THEIR CONJUGATES AND USES THEREOF” (STARGET PHARMA LTD., priority 2021, published 2024)
*1 amine or outer side, *2 acyl side, *3 side chain or, on linkers, in order; H or OH if unused. Bridges are numbered along the chain shown (N, C = ends). [ ]: non-standard residue; d: D form. The star is where a group is joined. DOTA = O=C(O)CN1CCN(CC(=O)O)CCN(CC(=O)*)CCN(CC(=O)O)CC1; N(2-mercaptoethyl)Gly = O=C(CN(CCS[*:3])[*:1])[*:2]

Experiments:
Experiment in all cases: cell-based or functional assay
OPRM1 (human) = OPRM1 (human) (UniProt P35372)
CNR1 (human) = CNR1 (human) (UniProt P21554)
CRHR2 (human) = CRHR2 (human) (UniProt Q13324)
MC3R (human) = MC3R (human) (UniProt P41968)
MTNR1A (human) = MTNR1A (human) (UniProt P48039)
(CR)L-RAMP2 (human) = (CR)L-RAMP2 (human) (UniProt Q16602)
GHSR (human) = GHSR (human) (UniProt Q92847)
CCKBR (human) = CCKBR (human) (UniProt P32239)
ADRA2A (human) = ADRA2A (human) (UniProt P08913)
ADRB2 (human) = ADRB2 (human) (UniProt P07550)
PTAFR (human) = PTAFR (human) (UniProt P25105)
MC1R (human) = MC1R (human) (UniProt Q01726)
BRS3 (human) = BRS3 (human) (UniProt P32247)
NTSR1 (human) = NTSR1 (human) (UniProt P30989)
CCR10 (human) = CCR10 (human) (UniProt P46092)
CNR2 (human) = CNR2 (human) (UniProt P34972)
F2RL1 (human) = F2RL1 (human) (UniProt P55085)
HRH1 (human) = HRH1 (human) (UniProt P35367)
NMU1R (human) = NMU1R (human) (UniProt Q9HB89)
FPRL1 (human) = FPRL1 (human) (UniProt P25090)
HRH3 (human) = HRH3 (human) (UniProt Q9Y5N1)
CXCR5 (human) = CXCR5 (human) (UniProt P32302)
HTR2A (human) = HTR2A (human) (UniProt P28223)
PTHR2 (human) = PTHR2 (human) (UniProt P49190)
DRD1 (human) = DRD1 (human) (UniProt P21728)
CCKAR (human) = CCKAR (human) (UniProt P32238)
CCR9 (human) = CCR9 (human) (UniProt P51686)
CHRM1 (human) = CHRM1 (human) (UniProt P11229)
AVPR1A (human) = AVPR1A (human) (UniProt P37288)
CXCR4 (human) = CXCR4 (human) (UniProt P61073)
GPR35 (human) = GPR35 (human) (UniProt Q9HC97)
ADRB1 (human) = ADRB1 (human) (UniProt P08588)
GPR103 (human) = GPR103 (human) (UniProt Q96P65)
CXCR2 (human) = CXCR2 (human) (UniProt P25025)
PRLHR (human) = PRLHR (human) (UniProt P49683)
TSHR(L) (human) = TSHR(L) (human) (UniProt P16473)
GPR109B (human) = GPR109B (human) (UniProt P49019)
CXCR1 (human) = CXCR1 (human) (UniProt P25024)
P2RY6 (human) = P2RY6 (human) (UniProt Q15077)
KISS1R (human) = KISS1R (human) (UniProt Q969F8)
CCR2 (human) = CCR2 (human) (UniProt P41597)
OPRL1 (human) = OPRL1 (human) (UniProt P41146)
CALCR (CR) (human) = CALCR (CR) (human) (UniProt P30988)
GALR1 (human) = GALR1 (human) (UniProt P47211)
EDG1 (human) = EDG1 (human) (UniProt P21453)
EDNRB (human) = EDNRB (human) (UniProt P24530)
UTR2 (human) = UTR2 (human) (UniProt Q9UKP6)
HTR1F (human) = HTR1F (human) (UniProt P30939)
OXER1 (human) = OXER1 (human) (UniProt Q8TDS5)
GLP1R (human) = GLP1R (human) (UniProt P43220)
DRD2L (human) = DRD2L (human) (UniProt P14416)
CHRM5 (human) = CHRM5 (human) (UniProt P08912)
AVPR2 (human) = AVPR2 (human) (UniProt P30518)
HCRTR1 (human) = HCRTR1 (human) (UniProt O43613)
GCGR (human) = GCGR (human) (UniProt P47871)
BDKRB2 (human) = BDKRB2 (human) (UniProt P30411)
GLP2R (human) = GLP2R (human) (UniProt O95838)
GPR109A (human) = GPR109A (human) (UniProt Q8TDS4)
HCRTR2 (human) = HCRTR2 (human) (UniProt O43614)

Chain of OXER1 (human) (Q8TDS5 whole entry): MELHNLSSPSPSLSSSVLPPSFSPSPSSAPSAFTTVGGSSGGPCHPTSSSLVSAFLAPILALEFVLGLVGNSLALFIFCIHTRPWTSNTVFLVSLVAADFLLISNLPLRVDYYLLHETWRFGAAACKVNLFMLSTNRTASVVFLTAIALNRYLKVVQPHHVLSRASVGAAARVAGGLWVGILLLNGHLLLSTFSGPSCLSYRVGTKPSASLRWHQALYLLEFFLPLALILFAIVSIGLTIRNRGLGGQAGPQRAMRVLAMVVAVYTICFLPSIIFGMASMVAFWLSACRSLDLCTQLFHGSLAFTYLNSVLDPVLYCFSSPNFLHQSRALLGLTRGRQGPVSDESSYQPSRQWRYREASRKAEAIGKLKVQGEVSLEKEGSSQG
Chain of GALR1 (human) (P47211 whole entry): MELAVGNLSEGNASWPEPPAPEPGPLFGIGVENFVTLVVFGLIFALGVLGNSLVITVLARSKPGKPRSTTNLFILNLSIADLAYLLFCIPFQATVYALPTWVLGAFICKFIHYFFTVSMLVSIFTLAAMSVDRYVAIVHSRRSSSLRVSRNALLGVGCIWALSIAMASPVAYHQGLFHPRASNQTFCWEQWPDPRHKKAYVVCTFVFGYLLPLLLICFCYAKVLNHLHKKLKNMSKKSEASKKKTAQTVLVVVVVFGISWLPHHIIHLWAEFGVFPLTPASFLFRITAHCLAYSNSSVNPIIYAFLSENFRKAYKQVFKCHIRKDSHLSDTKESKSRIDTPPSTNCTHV
Chain of PRLHR (human) (P49683 whole entry): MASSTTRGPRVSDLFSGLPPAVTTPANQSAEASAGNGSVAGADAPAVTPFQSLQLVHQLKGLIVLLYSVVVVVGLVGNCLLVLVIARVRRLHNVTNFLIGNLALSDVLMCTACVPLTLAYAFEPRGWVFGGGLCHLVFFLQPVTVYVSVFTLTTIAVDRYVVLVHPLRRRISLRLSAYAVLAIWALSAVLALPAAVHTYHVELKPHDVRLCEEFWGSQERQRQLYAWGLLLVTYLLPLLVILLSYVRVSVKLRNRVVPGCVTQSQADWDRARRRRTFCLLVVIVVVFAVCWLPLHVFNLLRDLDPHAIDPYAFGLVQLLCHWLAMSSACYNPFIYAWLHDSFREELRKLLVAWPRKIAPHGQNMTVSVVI
Chain of BRS3 (human) (P32247 whole entry): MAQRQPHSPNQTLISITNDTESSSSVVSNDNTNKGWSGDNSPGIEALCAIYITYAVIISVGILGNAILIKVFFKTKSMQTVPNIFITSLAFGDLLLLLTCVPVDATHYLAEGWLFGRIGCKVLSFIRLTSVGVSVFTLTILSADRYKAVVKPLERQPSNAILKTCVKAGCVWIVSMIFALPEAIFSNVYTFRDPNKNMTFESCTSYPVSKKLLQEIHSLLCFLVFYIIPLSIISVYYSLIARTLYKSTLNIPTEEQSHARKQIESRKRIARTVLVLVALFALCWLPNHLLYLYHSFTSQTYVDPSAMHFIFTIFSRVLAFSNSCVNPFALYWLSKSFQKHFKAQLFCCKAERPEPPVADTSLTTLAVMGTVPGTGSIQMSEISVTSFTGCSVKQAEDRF
Chain of KISS1R (human) (Q969F8 whole entry): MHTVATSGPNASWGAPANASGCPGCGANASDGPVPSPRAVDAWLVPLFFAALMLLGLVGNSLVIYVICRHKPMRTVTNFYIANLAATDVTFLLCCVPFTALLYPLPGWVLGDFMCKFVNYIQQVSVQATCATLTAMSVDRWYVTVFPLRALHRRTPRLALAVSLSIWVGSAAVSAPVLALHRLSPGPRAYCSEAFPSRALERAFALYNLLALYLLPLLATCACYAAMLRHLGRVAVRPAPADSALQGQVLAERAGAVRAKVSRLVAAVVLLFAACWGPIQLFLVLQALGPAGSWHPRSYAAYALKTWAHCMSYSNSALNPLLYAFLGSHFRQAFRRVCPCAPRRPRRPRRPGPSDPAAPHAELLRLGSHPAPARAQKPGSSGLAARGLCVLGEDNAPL
Chain of MC3R (human) (P41968 whole entry): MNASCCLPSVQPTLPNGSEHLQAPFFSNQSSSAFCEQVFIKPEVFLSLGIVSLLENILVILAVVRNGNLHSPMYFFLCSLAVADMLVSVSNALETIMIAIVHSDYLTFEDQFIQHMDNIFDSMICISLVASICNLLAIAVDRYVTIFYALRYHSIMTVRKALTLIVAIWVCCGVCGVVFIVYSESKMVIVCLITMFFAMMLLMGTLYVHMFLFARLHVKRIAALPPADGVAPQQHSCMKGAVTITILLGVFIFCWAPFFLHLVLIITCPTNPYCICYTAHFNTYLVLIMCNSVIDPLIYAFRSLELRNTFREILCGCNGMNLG
Chain of HRH3 (human) (Q9Y5N1 whole entry): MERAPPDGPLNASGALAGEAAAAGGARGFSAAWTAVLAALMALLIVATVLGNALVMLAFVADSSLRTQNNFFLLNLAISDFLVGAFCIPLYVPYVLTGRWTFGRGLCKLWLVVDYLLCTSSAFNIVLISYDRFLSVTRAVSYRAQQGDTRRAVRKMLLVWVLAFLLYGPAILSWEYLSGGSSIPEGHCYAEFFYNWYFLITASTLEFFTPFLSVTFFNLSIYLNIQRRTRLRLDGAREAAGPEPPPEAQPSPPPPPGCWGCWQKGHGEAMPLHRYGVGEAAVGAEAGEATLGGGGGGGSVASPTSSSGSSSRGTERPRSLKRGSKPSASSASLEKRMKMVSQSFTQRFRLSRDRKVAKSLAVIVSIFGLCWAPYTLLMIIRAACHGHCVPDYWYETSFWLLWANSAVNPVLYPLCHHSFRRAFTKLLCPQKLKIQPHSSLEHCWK
Chain of CCR2 (human) (P41597 whole entry): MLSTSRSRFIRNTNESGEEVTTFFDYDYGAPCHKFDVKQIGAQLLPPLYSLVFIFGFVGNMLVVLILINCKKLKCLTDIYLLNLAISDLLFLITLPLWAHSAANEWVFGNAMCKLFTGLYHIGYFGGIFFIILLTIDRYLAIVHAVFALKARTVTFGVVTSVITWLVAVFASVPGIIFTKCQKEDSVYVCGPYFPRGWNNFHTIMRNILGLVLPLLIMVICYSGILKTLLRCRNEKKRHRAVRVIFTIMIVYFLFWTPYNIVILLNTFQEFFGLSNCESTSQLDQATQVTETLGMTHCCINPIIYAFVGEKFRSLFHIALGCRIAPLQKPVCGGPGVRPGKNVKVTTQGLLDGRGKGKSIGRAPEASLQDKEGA
Chain of HRH1 (human) (P35367 whole entry): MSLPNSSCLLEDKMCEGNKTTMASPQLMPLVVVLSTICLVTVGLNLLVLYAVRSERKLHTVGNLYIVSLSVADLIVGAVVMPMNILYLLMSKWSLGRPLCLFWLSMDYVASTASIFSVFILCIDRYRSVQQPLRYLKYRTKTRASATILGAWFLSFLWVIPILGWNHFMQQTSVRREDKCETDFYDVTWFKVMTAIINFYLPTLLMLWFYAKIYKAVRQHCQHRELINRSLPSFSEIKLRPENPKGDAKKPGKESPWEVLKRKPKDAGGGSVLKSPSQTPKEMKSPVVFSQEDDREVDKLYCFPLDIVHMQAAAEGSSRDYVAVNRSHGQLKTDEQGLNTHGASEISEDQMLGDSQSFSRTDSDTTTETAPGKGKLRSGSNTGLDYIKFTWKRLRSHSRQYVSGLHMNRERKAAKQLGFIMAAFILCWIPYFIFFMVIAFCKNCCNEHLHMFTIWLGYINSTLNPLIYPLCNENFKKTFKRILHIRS
Chain of CHRM5 (human) (P08912 whole entry): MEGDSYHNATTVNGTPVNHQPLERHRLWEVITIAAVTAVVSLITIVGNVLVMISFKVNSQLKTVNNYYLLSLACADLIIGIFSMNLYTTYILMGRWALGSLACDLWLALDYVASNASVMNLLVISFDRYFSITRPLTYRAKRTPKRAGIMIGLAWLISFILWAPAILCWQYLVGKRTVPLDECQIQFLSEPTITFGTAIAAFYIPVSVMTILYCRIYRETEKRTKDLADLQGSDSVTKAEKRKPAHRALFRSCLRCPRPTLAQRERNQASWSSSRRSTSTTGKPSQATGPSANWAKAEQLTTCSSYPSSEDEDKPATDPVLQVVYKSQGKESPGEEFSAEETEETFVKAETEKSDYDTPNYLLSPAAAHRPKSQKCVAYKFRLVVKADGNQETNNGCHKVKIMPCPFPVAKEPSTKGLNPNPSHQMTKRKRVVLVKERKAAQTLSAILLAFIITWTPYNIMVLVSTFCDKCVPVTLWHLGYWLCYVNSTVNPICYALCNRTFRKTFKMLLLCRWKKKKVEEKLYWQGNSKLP
Chain of CALCR (CR) (human) (P30988 25-474): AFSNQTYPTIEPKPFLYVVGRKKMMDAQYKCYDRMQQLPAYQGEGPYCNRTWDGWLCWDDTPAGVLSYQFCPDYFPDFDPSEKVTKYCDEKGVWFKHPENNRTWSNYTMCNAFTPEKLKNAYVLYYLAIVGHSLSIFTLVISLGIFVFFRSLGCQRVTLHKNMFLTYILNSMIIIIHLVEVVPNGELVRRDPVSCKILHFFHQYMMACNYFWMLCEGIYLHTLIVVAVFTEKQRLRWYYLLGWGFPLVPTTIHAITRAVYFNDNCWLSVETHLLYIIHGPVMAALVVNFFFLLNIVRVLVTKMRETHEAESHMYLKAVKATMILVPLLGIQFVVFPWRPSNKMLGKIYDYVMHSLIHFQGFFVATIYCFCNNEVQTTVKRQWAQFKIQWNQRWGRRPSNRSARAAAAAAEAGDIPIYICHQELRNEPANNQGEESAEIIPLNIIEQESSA
Chain of P2RY6 (human) (Q15077 whole entry): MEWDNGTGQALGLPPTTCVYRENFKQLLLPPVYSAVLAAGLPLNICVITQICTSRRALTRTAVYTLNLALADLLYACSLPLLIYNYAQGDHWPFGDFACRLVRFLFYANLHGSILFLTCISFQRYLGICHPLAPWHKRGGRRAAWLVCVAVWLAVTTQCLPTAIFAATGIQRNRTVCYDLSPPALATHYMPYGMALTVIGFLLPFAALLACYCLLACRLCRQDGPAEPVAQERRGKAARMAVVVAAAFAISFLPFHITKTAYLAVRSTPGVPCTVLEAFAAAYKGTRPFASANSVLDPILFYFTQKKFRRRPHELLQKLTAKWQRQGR

B1: SEQ ID NO: 4 (peptide)
peptide: {DOTA}-[dF]RCF[dW]KTF[N(2-mercaptoethyl)Gly]-NH2
modifications: disulfide 3-9; also: Ga complex of DOTA
% Activity (agonist mode, 1 µM) (OPRM1 (human)): 1% | % Activity (agonist mode, 1 µM) (CNR1 (human)): -1% | % Activity (agonist mode, 1 µM) (CRHR2 (human)): 0% | % Activity (agonist mode, 1 µM) (MC3R (human)): 0% | % Activity (agonist mode, 1 µM) (MTNR1A (human)): -7% | % Activity (agonist mode, 1 µM) ((CR)L-RAMP2 (human)): 3% | % Activity (agonist mode, 1 µM) (GHSR (human)): -1% | % Activity (agonist mode, 1 µM) (CCKBR (human)): 2% | % Activity (agonist mode, 1 µM) (ADRA2A (human)): 3% | % Activity (agonist mode, 1 µM) (ADRB2 (human)): 0% | % Activity (agonist mode, 1 µM) (PTAFR (human)): -2% | % Activity (agonist mode, 1 µM) (MC1R (human)): 1% | % Activity (agonist mode, 1 µM) (BRS3 (human)): 1% | % Activity (agonist mode, 1 µM) (NTSR1 (human)): 3% | % Activity (agonist mode, 1 µM) (CCR10 (human)): -2% | % Activity (agonist mode, 1 µM) (CNR2 (human)): 2% | % Activity (agonist mode, 1 µM) (F2RL1 (human)): -4% | % Activity (agonist mode, 1 µM) (HRH1 (human)): -1% | % Activity (agonist mode, 1 µM) (NMU1R (human)): 1% | % Activity (agonist mode, 1 µM) (FPRL1 (human)): 0% | % Activity (agonist mode, 1 µM) (HRH3 (human)): -2% | % Activity (agonist mode, 1 µM) (CXCR5 (human)): 0% | % Activity (agonist mode, 1 µM) (HTR2A (human)): -1% | % Activity (agonist mode, 1 µM) (PTHR2 (human)): 0% | % Activity (agonist mode, 1 µM) (DRD1 (human)): 0% | % Activity (agonist mode, 1 µM) (CCKAR (human)): 0% | % Activity (agonist mode, 1 µM) (CCR9 (human)): 0% | % Activity (agonist mode, 1 µM) (CHRM1 (human)): -1% | % Activity (agonist mode, 1 µM) (AVPR1A (human)): 0% | % Activity (agonist mode, 1 µM) (CXCR4 (human)): 3% | % Activity (agonist mode, 1 µM) (GPR35 (human)): 1% | % Activity (agonist mode, 1 µM) (ADRB1 (human)): 1% | % Activity (agonist mode, 1 µM) (GPR103 (human)): 4% | % Activity (agonist mode, 1 µM) (CXCR2 (human)): -1% | % Activity (agonist mode, 1 µM) (PRLHR (human)): 1% | % Activity (agonist mode, 1 µM) (TSHR(L) (human)): -1% | % Activity (agonist mode, 1 µM) (GPR109B (human)): -3% | % Activity (agonist mode, 1 µM) (CXCR1 (human)): 0% | % Activity (agonist mode, 1 µM) (P2RY6 (human)): 0% | % Activity (agonist mode, 1 µM) (KISS1R (human)): 0% | % Activity (agonist mode, 1 µM) (CCR2 (human)): 1% | % Activity (agonist mode, 1 µM) (OPRL1 (human)): -3% | % Activity (agonist mode, 1 µM) (CALCR (CR) (human)): 0% | % Activity (agonist mode, 1 µM) (GALR1 (human)): 2% | % Activity (agonist mode, 1 µM) (EDG1 (human)): 0% | % Activity (agonist mode, 1 µM) (EDNRB (human)): 0% | % Activity (agonist mode, 1 µM) (UTR2 (human)): 0% | % Activity (agonist mode, 1 µM) (HTR1F (human)): 0% | % Activity (agonist mode, 1 µM) (OXER1 (human)): -2% | % Activity (agonist mode, 1 µM) (GLP1R (human)): 0% | % Activity (agonist mode, 1 µM) (DRD2L (human)): -1% | % Activity (agonist mode, 1 µM) (CHRM5 (human)): 5% | % Activity (agonist mode, 1 µM) (AVPR2 (human)): 0% | % Activity (agonist mode, 1 µM) (HCRTR1 (human)): 0% | % Activity (agonist mode, 1 µM) (GCGR (human)): -2% | % Activity (agonist mode, 1 µM) (BDKRB2 (human)): 0% | % Activity (agonist mode, 1 µM) (GLP2R (human)): -1% | % Activity (agonist mode, 1 µM) (GPR109A (human)): 0% | % Activity (agonist mode, 1 µM) (HCRTR2 (human)): 0%
